Literature values in article PMC4467374.

Key:
[1] = biological target: histone H3 K9me3 peptide (Homo sapiens) (UniProt P68431)
[2] = biological target: histone H3 K4me3/K9me3 peptide (Homo sapiens) (UniProt P68431)

Chain of UHRF1 TTD (Q96T88 124-285): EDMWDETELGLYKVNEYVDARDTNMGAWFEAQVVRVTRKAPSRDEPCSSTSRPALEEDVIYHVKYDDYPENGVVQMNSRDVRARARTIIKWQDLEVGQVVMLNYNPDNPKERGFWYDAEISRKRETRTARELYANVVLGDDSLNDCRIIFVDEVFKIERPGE

Kd [1]: 20 µM
Kd [2]: 90 µM
Substance: UHRF1 TTD (from UniProt Q96T88)
